Assay [1] has as its target membrane-bound full-length human CD89 on HEK293F cells (human) (UniProt P24071). Briefly: FACS, antibody before secretory IgA on HEK293F-huCD89; IgA detected. For orientation: A flow cytometer gives signals particle by particle.
For assay [2] the target is unchanged. Briefly: FACS HEK293F-huCD89, 10 ug/mL; competitor PE-MIP8a.
The target is the same in assay [3]. Nature of the assay: FACS, antibody before non-aggregated serum IgA on HEK293F-huCD89; IgA detected.
Assay [4] shares this target. Briefly: FACS on HEK293F-huCD89.
The target in assay [5] is recombinant C-terminal polyhistidine-tagged human (extracellular) CD89 (Sino Biological) (human) (UniProt P24071). Briefly: ELISA on coated rhuCD89. (In general: An ELISA detects its analyte on a solid surface through an enzyme-linked reagent.)
For assay [6], the target named is membrane-bound full-length human CD89 on HEK293F cells (human) (UniProt P24071). Nature of the assay: FACS, antibody before serum IgA on HEK293F-huCD89; IgA detected.
For assay [7] the target is unchanged. Nature of the assay: FACS, antibody before non-aggregated serum IgA on HEK293F-huCD89; IgA detected. The source holds these as a separate data set.
The target in assay [8] is recombinant C-terminal polyhistidine-tagged human (extracellular) CD89 (Sino Biological) (human) (UniProt P24071). Nature of the assay: ELISA, antibody before serum IgA on coated rhuCD89; IgA detected.
Assay [9] addresses membrane-bound full-length human CD89 on HEK293F cells (human) (UniProt P24071). Briefly: FACS, unlabelled antibody before MIP8a-PE on HEK293F-huCD89.
Assay [10] has the same target. Briefly: FACS, antibody before heat-aggregated serum IgA on HEK293F-huCD89; IgA detected.
Assay [11] shares this target. Described as above. This is another data set of the same source.
The target of assay [12] is membrane human CD89 on ex vivo primary human neutrophilic granulocytes or monocytic U937 cells (human) (UniProt P24071).
Assay [13] concerns the target membrane-bound full-length human CD89 on HEK293F cells (human) (UniProt P24071). Nature of the assay: FACS HEK293F-huCD89, 10 ug/mL; competitor PE-A59.
Assay [14] shares this target. Briefly: FACS HEK293F-huCD89, 10 ug/mL; competitor PE-A3.
Assay [15] has the same target. Nature of the assay: FACS, unlabelled antibody before A3-PE on HEK293F-huCD89.
The target is the same in assay [16]. Nature of the assay: FACS, unlabelled antibody before A59-PE on HEK293F-huCD89.
Assay [17] has the same target. Briefly: FACS HEK293F-huCD89, 10 ug/mL; heat-aggregated serum IgA (similar with non-aggregated).
Assay [18] has the same target. Briefly: FACS HEK293F-huCD89; non-aggregated serum IgA.
The target is the same in assay [19]. Nature of the assay: FACS HEK293F-huCD89, titrated Ab; non-aggregated serum IgA.
The target is the same in assay [20]. Briefly: FACS HEK293F-huCD89, titrated Ab; heat-aggregated serum IgA.
Assay [21] has the same target. Nature of the assay: FACS HEK293F-huCD89; heat-aggregated serum IgA.

For orientation: EC50 (read off the curve) means the midpoint of the concentration-response curve. Consider “mouse anti-human CD89 antibody clone MIP8a (BioRad)”, for which the IC50 (read off the curve) in [1] came to 0.4 µg/mL; in assay [3], 0.2 µg/mL; in [6], 0.2 µg/mL; in [7], 0.7 µg/mL; in assay [8], 0.07 µg/mL; in assay [9], 0.3 µg/mL. In addition, the IC50 (read off the curve) worked out at 0.7 µg/mL in assay [10], 0.2 µg/mL in [11] and 0.2 µg/mL in assay [15]. Further, the % blocking of PE-MIP8a binding in assay [2] was more than 90%. For the same substance, the concentration for a half-maximal effect (EC50 (read off the curve)) in assay [4] came out at 0.2 µg/mL; in assay [5], 0.02 µg/mL. The substance also came in with an IC50 (read off the bars), binding of granulocytes to plate-bound serum IgA [Donor 3] in assay [12] of 0.6 µg/mL. In assay [13], this substance returned a % blocking of PE-A59 binding of 50%. In addition, in assay [14], the % blocking of PE-A3 binding came out at 55%.
In assay [2], “mouse anti-human CD89 antibody clone A59 (BD Biosciences)” displayed a % blocking of PE-MIP8a binding of less than 25%. Besides, the IC50 (read off the curve) in assay [16] came out at 0.6 µg/mL; in assay [7], 1 µg/mL; in [10], 1 µg/mL. The substance further registered a % blocking of IgA binding in assay [17] of 60%. Moreover, the maximum inhibition of IgA binding in assay [18], in [19], in [20] and in [21] was 60% in each case. Further, in assay [13], the % blocking of PE-A59 binding is more than 90%. This substance also gave a % blocking of PE-A3 binding in assay [14] of more than 90%.
“mouse anti-human CD89 antibody clone A3 (Santa Cruz Biotechnology)”: the % blocking of PE-MIP8a binding in assay [2] was less than 25%. For the same substance, the IC50 (read off the curve) came to 0.4 µg/mL in assay [3]; 0.8 µg/mL in assay [7]; 0.7 µg/mL in assay [10]; 0.4 µg/mL in assay [11]; 0.4 µg/mL in assay [15]. The substance also gave a % blocking of IgA binding in assay [17] of 60%. Moreover, the maximum inhibition of IgA binding in assay [18], in assay [19], in assay [20] and in [21] was 60% in each case. The % blocking of PE-A59 binding in [13] was more than 90%. In assay [14], this substance had a % blocking of PE-A3 binding of more than 90%.

The values above are taken from patent US20230242646A1.
